Legend:
Assay in all cases: purified protein
Nc1c(O)cccc1C(=O)O [1] = test system: T1, Nc1c(O)cccc1C(=O)O; assay type: biochemical, Juglans regia; conditions: 1 mM PR-PPi, 45 mM imidazole HCl pH 7.4, 30 °C, 3-HAA 0-0.5 mM
T1 construct: codon-optimized gene in pET28a, His-tagged, E. coli BL21 (DE3), Ni-NTA

Nc1ccccc1C(=O)O [2] = assay type: biochemical, Juglans regia; conditions: 1 mM PR-PPi, 45 mM imidazole HCl pH 7.4, 30 °C, anthranilate 0-0.75 mM
Nc1c(O)cccc1C(=O)O [3] = test system: T1, Nc1c(O)cccc1C(=O)O; assay type: biochemical, Arabidopsis thaliana; conditions: 1 mM PR-PPi, 45 mM imidazole HCl pH 7.4, 30 °C, 3-HAA 0-0.5 mM
Nc1ccccc1C(=O)O [4] = test system: T2, Nc1ccccc1C(=O)O; assay type: biochemical, Arabidopsis thaliana; conditions: 1 mM PR-PPi, 45 mM imidazole HCl pH 7.4, 30 °C, anthranilate 0-0.75 mM
T2 construct: codon-optimized gene in pET28a, His-tagged, E. coli BL21 (DE3), Ni-NTA

Nc1ccccc1C(=O)O [5] = assay type: biochemical, Physcomitrium patens; conditions: 1 mM PR-PPi, 45 mM imidazole HCl pH 7.4, 30 °C, anthranilate 0-0.75 mM
Nc1c(O)cccc1C(=O)O [6] = test system: T1, Nc1c(O)cccc1C(=O)O; assay type: biochemical, Selaginella moellendorffii; conditions: 1 mM PR-PPi, 45 mM imidazole HCl pH 7.4, 30 °C, 3-HAA 0-0.5 mM
Nc1ccccc1C(=O)O [7] = test system: T2, Nc1ccccc1C(=O)O; assay type: biochemical, Selaginella moellendorffii; conditions: 1 mM PR-PPi, 45 mM imidazole HCl pH 7.4, 30 °C, anthranilate 0-0.75 mM

JrPAT1 (Juglans regia) was tested, and the Km (Nc1c(O)cccc1C(=O)O [1]) was 28.23 ± 4.2 µM, the kcat (Nc1c(O)cccc1C(=O)O [1]) was 0.0483 ± 0.00167 s⁻¹ and the kcat/Km (Nc1c(O)cccc1C(=O)O [1]) was 1690 M⁻¹ s⁻¹. It also gave a Km (Nc1ccccc1C(=O)O [2]) of 38.7 ± 3.5 µM, a kcat (Nc1ccccc1C(=O)O [2]) of 0.055 ± 0.00167 s⁻¹ and a kcat/Km (Nc1ccccc1C(=O)O [2]) of 1420 M⁻¹ s⁻¹.

Work on AtPAT1 (Arabidopsis thaliana) yielded a Km (Nc1c(O)cccc1C(=O)O [3]) of 19.63 ± 2.3 µM, a kcat (Nc1c(O)cccc1C(=O)O [3]) of 0.0483 ± 0.00117 s⁻¹ and a kcat/Km (Nc1c(O)cccc1C(=O)O [3]) of 2470 M⁻¹ s⁻¹. For the same substance, the Km (Nc1ccccc1C(=O)O [4]) was 20.6 ± 2.0 µM, the kcat (Nc1ccccc1C(=O)O [4]) was 0.132 ± 0.00167 s⁻¹ and the kcat/Km (Nc1ccccc1C(=O)O [4]) was 6360 M⁻¹ s⁻¹.

In the case of PpPAT1 (Physcomitrium patens), the Km (Nc1ccccc1C(=O)O [5]) is reported as 31.8 ± 4.4 µM, the kcat (Nc1ccccc1C(=O)O [5]) is reported as 0.0567 ± 0.00167 s⁻¹ and the kcat/Km (Nc1ccccc1C(=O)O [5]) is reported as 1790 M⁻¹ s⁻¹.

For SmPAT1 (Selaginella moellendorffii), the Km (Nc1c(O)cccc1C(=O)O [6]) was 22.66 ± 1.5 µM, the kcat (Nc1c(O)cccc1C(=O)O [6]) was 0.0533 ± 0.000833 s⁻¹ and the kcat/Km (Nc1c(O)cccc1C(=O)O [6]) was 2360 M⁻¹ s⁻¹. It also gave a Km (Nc1ccccc1C(=O)O [7]) of 189 ± 35 µM, a kcat (Nc1ccccc1C(=O)O [7]) of 0.085 ± 0.005 s⁻¹ and a kcat/Km (Nc1ccccc1C(=O)O [7]) of 450 M⁻¹ s⁻¹.
